Series [1] deals with HeLa Kyoto. Description: solubility in G1/S (NP-40 vs SDS abundance) (log2 ratio); higher = more soluble. As to conditions: cell cycle stage: G1/S.
For series [2], the system named is HeLa Kyoto. Briefly: solubility change mitosis vs G1/S (difference of NP-40 vs SDS log2 ratios) (log2 ratio difference); higher = more soluble in mitosis.
In series [3] the test system is HeLa Kyoto. Description: thermal stability score vs G1/S (z-score of summed log2 fold changes over temperatures); higher = more thermally stable than in G1/S.
The test system of series [4] is HeLa Kyoto. Description: melting temperature (median over replicates), in situ; higher = more thermally stable.
Setting [5] is: cell cycle stage: early G1 (4.5 h after nocodazole release).
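Throughout, for melting temperature (median over replicates), in situ: HeLa Kyoto cells synchronized by double thymidine or nocodazole block, proteins quantified by TMT10plex mass spectrometry, three independent biological replicates.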
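Throughout, for solubility change mitosis vs G1/S (difference of NP-40 vs SDS log2 ratios): synchronized HeLa Kyoto cells (double thymidine block for G1/S, nocodazole release for mitosis), protein amounts in NP-40 versus SDS lysates quantified by mass spectrometry, three biological replicates.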
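Throughout, for solubility in G1/S (NP-40 vs SDS abundance): HeLa Kyoto cells arrested at G1/S by double thymidine block, proteins quantified by TMT10plex mass spectrometry in mild NP-40 versus SDS extracts, three biological replicates.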
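Throughout, for thermal stability score vs G1/S (z-score of summed log2 fold changes over temperatures): synchronized HeLa Kyoto cells, proteins quantified by TMT10plex mass spectrometry, three biological replicates, mitosis taken 0.5 h after nocodazole release, G1/S directly after double thymidine block.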

Consider “MSVNSEKSSSSERPEPQQKAPLVPPPPPPPPPPPPPLPDPTPPEPEEEILGSDDEEQEDPADYCKGGYHPVKIGDLFNGRYHVIRKLGWGHFSTVWLCWDMQGKRFVAMKVVKSAQHYTETALDEIKLLKCVRESDPSDPNKDMVVQLIDDFKISGMNGIHVCMVFEVLGHHLLKWIIKSNYQGLPVRCVKSIIRQVLQGLDYLHSKCKIIHTDIKPENILMCVDDAYVRRMAAEATEWQKAGAPPPSGSAVSTAPQQKPIGKISKNKKKKLKKKQKRQAELLEKRLQEIEELEREAERKIIEENITSAAPSNDQDGEYCPEVKLKTTGLEEAAEAETAKDNGEAEDQEEKEDAEKENIEKDEDDVDQELANIDPTWIESPKTNGHIENGPFSLEQQLDDEDDDEEDCPNPEEYNLDEPNAESDYTYSSSYEQFNGELPNGRHKIPESQFPEFSTSLFSGSLEPVACGSVLSEGSPLTEQEESSPSHDRSRTVSASSTGDLPKAKTRAADLLVNPLDPRNADKIRVKIADLGNACWVHKHFTEDIQTRQYRSIEVLIGAGYSTPADIWSTACMAFELATGDYLFEPHSGEDYSRDEDHIAHIIELLGSIPRHFALSGKYSREFFNRRGELRHITKLKPWSLFDVLVEKYGWPHEDAAQFTDFLIPMLEMVPEKRASAGECLRHPWLNS [SRPK2]”, for which the “solubility in G1/S (log2)” value with HeLa Kyoto [1] is -0.405. Further, in the series with HeLa Kyoto [2], the “solubility change mitosis (log2)” value was 0.0499. Further, the thermal stability score is -3.22 with HeLa Kyoto [3] (setting [5]) and -4.46 in the series on HeLa Kyoto [3] (cell cycle stage: mitosis). Further, the values for the melting temperature in the series with HeLa Kyoto [4] (cell cycle stage: G1/S) and in the series with HeLa Kyoto [4] (cell cycle stage: mitosis) were 53.3 °C and 52.2 °C, respectively.

Regarding “MTLDVGPEDELPDWAAAKEFYQKYDPKDVIGRGVSSVVRRCVHRATGHEFAVKIMEVTAERLSPEQLEEVREATRRETHILRQVAGHPHIITLIDSYESSSFMFLVFDLMRKGELFDYLTEKVALSEKETRSIMRSLLEAVSFLHANNIVHRDLKPENILLDDNMQIRLSDFGFSCHLEPGEKLRELCGTPGYLAPEILKCSMDETHPGYGKEVDLWACGVILFTLLAGSPPFWHRRQILMLRMIMEGQYQFSSPEWDDRSSTVKDLISRLLQVDPEARLTAEQALQHPFFERCEGSQPWNLTPRQRFRVAVWTVLAAGRVALSTHRVRPLTKNALLRDPYALRSVRHLIDNCAFRLYGHWVKKGEQQNRAALFQHRPPGPFPIMGPEEEGDSAAITEDEAVLVLG [PHKG2]”, in the series on HeLa Kyoto [1], the “solubility in G1/S (log2)” value was -0.0283. Besides, the “solubility change mitosis (log2)” value with HeLa Kyoto [2] is -0.298. In addition, the values for the thermal stability score in the series on HeLa Kyoto [3] (setting [5]) and in the series with HeLa Kyoto [3] (cell cycle stage: mitosis) were -0.266 and 0.0815, respectively. Moreover, the melting temperature turned out to be 50.4 °C with HeLa Kyoto [4] (cell cycle stage: G1/S) and 50.7 °C in the series with HeLa Kyoto [4] (cell cycle stage: mitosis).

As to XPNPEP3, in the series on HeLa Kyoto [1], the “solubility in G1/S (log2)” value was 0.275. Besides, the “solubility change mitosis (log2)” value in the series on HeLa Kyoto [2] was -0.146. Also, the thermal stability score in the series with HeLa Kyoto [3] (setting [5]) was -0.645; in the series on HeLa Kyoto [3] (cell cycle stage: mitosis), -2.12. The melting temperature with HeLa Kyoto [4] (cell cycle stage: G1/S) is 53.4 °C; in the series on HeLa Kyoto [4] (cell cycle stage: mitosis) it was 53.3 °C.

With “MELALRRSPVPRWLLLLPLLLGLNAGAVIDWPTEEGKEVWDYVTVRKDAYMFWWLYYATNSCKNFSELPLVMWLQGGPGGSSTGFGNFEEIGPLDSDLKPRKTTWLQAASLLFVDNPVGTGFSYVNGSGAYAKDLAMVASDMMVLLKTFFSCHKEFQTVPFYIFSESYGGKMAAGIGLELYKAIQRGTIKCNFAGVALGDSWISPVDSVLSWGPYLYSMSLLEDKGLAEVSKVAEQVLNAVNKGLYREATELWGKAEMIIEQNTDGVNFYNILTKSTPTSTMESSLEFTQSHLVCLCQRHVRHLQRDALSQLMNGPIRKKLKIIPEDQSWGGQATNVFVNMEEDFMKPVISIVDELLEAGINVTVYNGQLDLIVDTMGQEAWVRKLKWPELPKFSQLKWKALYSDPKSLETSAFVKSYKNLAFYWILKAGHMVPSDQGDMALKMMRLVTQQE [SCPEP1]”, the “solubility in G1/S (log2)” value with HeLa Kyoto [1] came out at 0.402. In addition, in the series with HeLa Kyoto [2], the “solubility change mitosis (log2)” value turned out to be 0.202. Moreover, the thermal stability score is -2.33 in the series with HeLa Kyoto [3] (setting [5]) and -0.14 with HeLa Kyoto [3] (cell cycle stage: mitosis). The values for the melting temperature in the series with HeLa Kyoto [4] (cell cycle stage: G1/S) and with HeLa Kyoto [4] (cell cycle stage: mitosis) were 56.9 °C and 55.6 °C, respectively.

Regarding “MVVFGYEAGTKPRDSGVVPVGTEEAPKVFKMAASMHGQPSPSLEDAKLRRPMVIEIIEKNFDYLRKEMTQNIYQMATFGTTAGFSGIFSNFLFRRCFKVKHDALKTYASLATLPFLSTVVTDKLFVIDALYSDNISKENCVFRSSLIGIVCGVFYPSSLAFTKNGRLATKYHTVPLPPKGRVLIHWMTLCQTQMKLMAIPLVFQIMFGILNGLYHYAVFEETLEKTIHEE [TMEM126B]”, the “solubility in G1/S (log2)” value in the series on HeLa Kyoto [1] is -0.0998. Further, the “solubility change mitosis (log2)” value in the series on HeLa Kyoto [2] worked out at 0.00498. Further, the thermal stability score with HeLa Kyoto [3] (setting [5]) is 0.469; in the series on HeLa Kyoto [3] (cell cycle stage: mitosis) it was -1.3. The melting temperature was 55.9 °C in the series with HeLa Kyoto [4] (cell cycle stage: G1/S) and 53.5 °C in the series on HeLa Kyoto [4] (cell cycle stage: mitosis).

On to “MVAVLGGRGVLRLRLLLSALKPGIHVPRAGPAAAFGTSVTSAKVAVNGVQLHYQQTGEGDHAVLLLPGMLGSGETDFGPQLKNLNKKLFTVVAWDPRGYGHSRPPDRDFPADFFERDAKDAVDLMKALKFKKVSLLGWSDGGITALIAAAKYPSYIHKMVIWGANAYVTDEDSMIYEGIRDVSKWSERTRKPLEALYGYDYFARTCEKWVDGIRQFKHLPDGNICRHLLPRVQCPALIVHGEKDPLVPRFHADFIHKHVKGSRLHLMPEGKHNLHLRFADEFNKLAEDFLQ [BPHL]”, for which the “solubility in G1/S (log2)” value with HeLa Kyoto [1] came out at 0.0569. Further, the “solubility change mitosis (log2)” value with HeLa Kyoto [2] is -0.00389. The thermal stability score worked out at 0.683 with HeLa Kyoto [3] (setting [5]) and 0.206 with HeLa Kyoto [3] (cell cycle stage: mitosis). Moreover, the melting temperature worked out at 52.7 °C in the series on HeLa Kyoto [4] (cell cycle stage: G1/S) and 52.4 °C in the series on HeLa Kyoto [4] (cell cycle stage: mitosis).

As to “MFSKLAHLQRFAVLSRGVHSSVASATSVATKKTVQGPPTSDDIFEREYKYGAHNYHPLPVALERGKGIYLWDVEGRKYFDFLSSYSAVNQGHCHPKIVNALKSQVDKLTLTSRAFYNNVLGEYEEYITKLFNYHKVLPMNTGVEAGETACKLARKWGYTVKGIQKYKAKIVFAAGNFWGRTLSAISSSTDPTSYDGFGPFMPGFDIIPYNDLPALERALQDPNVAAFMVEPIQGEAGVVVPDPGYLMGVRELCTRHQVLFIADEIQTGLARTGRWLAVDYENVRPDIVLLGKALSGGLYPVSAVLCDDDIMLTIKPGEHGSTYGGNPLGCRVAIAALEVLEEENLAENADKLGIILRNELMKLPSDVVTAVRGKGLLNAIVIKETKDWDAWKVCLRLRDNGLLAKPTHGDIIRFAPPLVIKEDELRESIEIINKTILSF [OAT]”, the “solubility in G1/S (log2)” value in the series on HeLa Kyoto [1] turned out to be 0.246. Besides, the “solubility change mitosis (log2)” value with HeLa Kyoto [2] is -0.168. Further, the thermal stability score is 0.897 in the series with HeLa Kyoto [3] (setting [5]) and -0.508 in the series on HeLa Kyoto [3] (cell cycle stage: mitosis). The melting temperature in the series on HeLa Kyoto [4] (cell cycle stage: G1/S) turned out to be 52.8 °C; with HeLa Kyoto [4] (cell cycle stage: mitosis), 53 °C.

As to “MELRVLLCWASLAAALEETLLNTKLETADLKWVTFPQVDGQWEELSGLDEEQHSVRTYEVCDVQRAPGQAHWLRTGWVPRRGAVHVYATLRFTMLECLSLPRAGRSCKETFTVFYYESDADTATALTPAWMENPYIKVDTVAAEHLTRKRPGAEATGKVNVKTLRLGPLSKAGFYLAFQDQGACMALLSLHLFYKKCAQLTVNLTRFPETVPRELVVPVAGSCVVDAVPAPGPSPSLYCREDGQWAEQPVTGCSCAPGFEAAEGNTKCRACAQGTFKPLSGEGSCQPCPANSHSNTIGSAVCQCRVGYFRARTDPRGAPCTTPPSAPRSVVSRLNGSSLHLEWSAPLESGGREDLTYALRCRECRPGGSCAPCGGDLTFDPGPRDLVEPWVVVRGLRPDFTYTFEVTALNGVSSLATGPVPFEPVNVTTDREVPPAVSDIRVTRSSPSSLSLAWAVPRAPSGAVLDYEVKYHEKGAEGPSSVRFLKTSENRAELRGLKRGASYLVQVRARSEAGYGPFGQEHHSQTQLDESEGWREQLALIAGTAVVGVVLVLVVIVVAVLCLRKQSNGREAEYSDKHGQYLIGHGTKVYIDPFTYEDPNEAVREFAKEIDVSYVKIEEVIGAGEFGEVCRGRLKAPGKKESCVAIKTLKGGYTERQRREFLSEASIMGQFEHPNIIRLEGVVTNSMPVMILTEFMENGALDSFLRLNDGQFTVIQLVGMLRGIASGMRYLAEMSYVHRDLAARNILVNSNLVCKVSDFGLSRFLEENSSDPTYTSSLGGKIPIRWTAPEAIAFRKFTSASDAWSYGIVMWEVMSFGERPYWDMSNQDVINAIEQDYRLPPPPDCPTSLHQLMLDCWQKDRNARPRFPQVVSALDKMIRNPASLKIVARENGGASHPLLDQRQPHYSAFGSVGEWLRAIKMGRYEESFAAAGFGSFELVSQISAEDLLRIGVTLAGHQKKILASVQHMKSQAKPGTPGGTGGPAPQY [EPHB4]”, the “solubility in G1/S (log2)” value with HeLa Kyoto [1] worked out at 0.0967. Further, the “solubility change mitosis (log2)” value with HeLa Kyoto [2] is -0.108. For the same substance, the thermal stability score in the series on HeLa Kyoto [3] (setting [5]) is 1.38; in the series on HeLa Kyoto [3] (cell cycle stage: mitosis), -0.755. For the same substance, the melting temperature turned out to be 49.4 °C with HeLa Kyoto [4] (cell cycle stage: G1/S) and 48.9 °C with HeLa Kyoto [4] (cell cycle stage: mitosis).

Consider FAM208A, for which, in the series with HeLa Kyoto [1], the “solubility in G1/S (log2)” value was -0.847. Also, the “solubility change mitosis (log2)” value in the series with HeLa Kyoto [2] stood at 0.524. Moreover, the thermal stability score was 0.605 in the series on HeLa Kyoto [3] (setting [5]) and 0.529 in the series on HeLa Kyoto [3] (cell cycle stage: mitosis). In addition, the values for the melting temperature in the series on HeLa Kyoto [4] (cell cycle stage: G1/S) and in the series with HeLa Kyoto [4] (cell cycle stage: mitosis) were 49.7 °C and 50.2 °C, respectively.

As for “MAENHAQNKAKLISETRRRFEAEYVTDKSDKYDARDVERLQQDDNWVESYLSWRHNIVDETLKMLDESFQWRKEISVNDLNESSIPRWLLEIGVIYLHGYDKEGNKLFWIRVKYHVKDQKTILDKKKLIAFWLERYAKRENGKPVTVMFDLSETGINSIDMDFVRFIINCFKVYYPKYLSKIVIFDMPWLMNAAFKIVKTWLGPEAVSLLKFTSKNEVQDYVSVEYLPPHMGGTDPFKYSYPPLVDDDFQTPLCENGPITSEDETSSKEDIESDGKETLETISNEEQTPLLKKINPTESTSKAEENEKVDSKVKAFKKPLSVFKGPLLHISPAEELYFGSTESGEKKTLIVLTNVTKNIVAFKVRTTAPEKYRVKPSNSSCDPGASVDIVVSPHGGLTVSAQDRFLIMAAEMEQSSGTGPAELTQFWKEVPRNKVMEHRLRCHTVESSKPNTLTLKDNAFNMSDKTSEDICLQLSRLLESNRKLEDQVQRCIWFQQLLLSLTMLLLAFVTSFFYLLYS [MOSPD2]”, the “solubility in G1/S (log2)” value in the series with HeLa Kyoto [1] is -0.0365. In addition, the “solubility change mitosis (log2)” value with HeLa Kyoto [2] was -0.115. In addition, the thermal stability score in the series with HeLa Kyoto [3] (setting [5]) was found to be 1.72; in the series on HeLa Kyoto [3] (cell cycle stage: mitosis), 0.81. The melting temperature with HeLa Kyoto [4] (cell cycle stage: G1/S) and in the series on HeLa Kyoto [4] (cell cycle stage: mitosis) was 51.4 °C in each case.

For the origin of these results see the supplement of paper PMC5998384.
